Experimental data reported in US20240241135A1 (SENBOLL BIOTECHNOLOGY, published 2024).

T1: recombinant human regenerating islet-derived protein 1α (REG1A) (human, UniProt P05451 23-166, limits assumed)
T1 construct: also called recombinant human REG1A; recombinant REG1A
T1 sequence (looked up): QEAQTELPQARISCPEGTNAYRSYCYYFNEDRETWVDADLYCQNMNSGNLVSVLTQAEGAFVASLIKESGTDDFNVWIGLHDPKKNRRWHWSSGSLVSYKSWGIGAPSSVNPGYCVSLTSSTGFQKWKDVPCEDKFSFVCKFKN


Columns and labels:
[1] = molecular target: T1, recombinant human regenerating …; experiment: sandwich ELISA; capture 21B11D2; REG1A 33.33 ng/mL
Method in brief: (§1)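 Sandwich ELISA with the capture monoclonal antibody coated overnight at 4 °C in PBS, then blocking for 2 h at 37 °C. Recombinant human REG1A in basic diluent (100 μL per well) was incubated for 1 h at 37 °C. It was then detected with a horseradish peroxidase-based detection antibody system and TMB substrate for 15 min at 37 °C, and stopped with 0.2M sulfuric acid. OD value is the absorbance at 450 nm minus that at 620/630 nm.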

[2] = molecular target: T1, recombinant human regenerating …; experiment: sandwich ELISA; capture 25F3C4; REG1A 33.33 ng/mL
Method in brief: as §1

[3] = molecular target: T1, recombinant human regenerating …; experiment: sandwich ELISA; capture 12F12A10; REG1A 11.11 ng/mL
Method in brief: as §1

[4] = molecular target: T1, recombinant human regenerating …; experiment: sandwich ELISA; capture 25F3C4; REG1A 1.23 ng/mL
Method in brief: as §1

[5] = molecular target: T1, recombinant human regenerating …; experiment: sandwich ELISA; capture 11D11B11; REG1A 33.33 ng/mL
Method in brief: as §1

[6] = molecular target: T1, recombinant human regenerating …; experiment: sandwich ELISA; capture 21B11D2; REG1A 0 ng/mL (blank)
Method in brief: as §1

[7] = molecular target: T1, recombinant human regenerating …; experiment: sandwich ELISA; capture 4H8F1; REG1A 3.70 ng/mL
Method in brief: as §1

[8] = molecular target: T1, recombinant human regenerating …; experiment: sandwich ELISA; capture 11D11B11; REG1A 3.70 ng/mL
Method in brief: as §1

[9] = molecular target: T1, recombinant human regenerating …; experiment: sandwich ELISA; capture 12F12A10; REG1A 0 ng/mL (blank)
Method in brief: as §1

[10] = molecular target: T1, recombinant human regenerating …; experiment: sandwich ELISA; capture 4H8F1; REG1A 100.00 ng/mL
Method in brief: as §1

[11] = molecular target: T1, recombinant human regenerating …; experiment: sandwich ELISA; capture 11D11B11; REG1A 0 ng/mL (blank)
Method in brief: as §1

[12] = molecular target: T1, recombinant human regenerating …; experiment: sandwich ELISA; capture 25F3C4; REG1A 0 ng/mL (blank)
Method in brief: as §1

[13] = molecular target: T1, recombinant human regenerating …; experiment: sandwich ELISA; capture 12F12A10; REG1A 100.00 ng/mL
Method in brief: as §1

[14] = molecular target: T1, recombinant human regenerating …; experiment: sandwich ELISA; capture 4H8F1; REG1A 1.23 ng/mL
Method in brief: as §1

[15] = molecular target: T1, recombinant human regenerating …; experiment: sandwich ELISA; capture 11D11B11; REG1A 100.00 ng/mL
Method in brief: as §1

[16] = molecular target: T1, recombinant human regenerating …; experiment: sandwich ELISA; capture 25F3C4; REG1A 100.00 ng/mL
Method in brief: as §1

[17] = molecular target: T1, recombinant human regenerating …; experiment: sandwich ELISA; capture 21B11D2; REG1A 3.70 ng/mL
Method in brief: as §1

[18] = molecular target: T1, recombinant human regenerating …; experiment: sandwich ELISA; capture 11D11B11; REG1A 1.23 ng/mL
Method in brief: as §1

[19] = molecular target: T1, recombinant human regenerating …; experiment: sandwich ELISA; capture 4H8F1; REG1A 0 ng/mL (blank)
Method in brief: as §1

[20] = molecular target: T1, recombinant human regenerating …; experiment: sandwich ELISA; capture 11D11B11; REG1A 11.11 ng/mL
Method in brief: as §1

[21] = molecular target: T1, recombinant human regenerating …; experiment: sandwich ELISA; capture 12F12A10; REG1A 33.33 ng/mL
Method in brief: as §1

[22] = molecular target: T1, recombinant human regenerating …; experiment: sandwich ELISA; capture 4H8F1; REG1A 11.11 ng/mL
Method in brief: as §1

[23] = molecular target: T1, recombinant human regenerating …; experiment: sandwich ELISA; capture 12F12A10; REG1A 3.70 ng/mL
Method in brief: as §1

[24] = molecular target: T1, recombinant human regenerating …; experiment: sandwich ELISA; capture 12F12A10; REG1A 1.23 ng/mL
Method in brief: as §1

[25] = molecular target: T1, recombinant human regenerating …; experiment: sandwich ELISA; capture 21B11D2; REG1A 11.11 ng/mL
Method in brief: as §1

[26] = molecular target: T1, recombinant human regenerating …; experiment: sandwich ELISA; capture 21B11D2; REG1A 100.00 ng/mL
Method in brief: as §1

[27] = molecular target: T1, recombinant human regenerating …; experiment: sandwich ELISA; capture 4H8F1; REG1A 33.33 ng/mL
Method in brief: as §1

[28] = molecular target: T1, recombinant human regenerating …; experiment: sandwich ELISA; capture 21B11D2; REG1A 1.23 ng/mL
Method in brief: as §1

[29] = molecular target: T1, recombinant human regenerating …; experiment: sandwich ELISA; capture 25F3C4; REG1A 3.70 ng/mL
Method in brief: as §1

[30] = molecular target: T1, recombinant human regenerating …; experiment: sandwich ELISA; capture 25F3C4; REG1A 11.11 ng/mL
Method in brief: as §1

| Binder | OD value [1] [OD] | OD value [2] [OD] | OD value [3] [OD] | OD value [4] [OD] | OD value [5] [OD] | OD value [6] [OD] | OD value [7] [OD] | OD value [8] [OD] | OD value [9] [OD] | OD value [10] [OD] | OD value [11] [OD] | OD value [12] [OD] | OD value [13] [OD] | OD value [14] [OD] | OD value [15] [OD] | OD value [16] [OD] | OD value [17] [OD] | OD value [18] [OD] | OD value [19] [OD] | OD value [20] [OD] | further results |
| --- | --- | --- | --- | --- | --- | --- | --- | --- | --- | --- | --- | --- | --- | --- | --- | --- | --- | --- | --- | --- | --- |
| antibody 4H8F1 (antibody, V domains shown, Mouse monoclonal from hybridoma, stated mouse IgG1/Kappa; also called 4H8F1-biotin; Antibody 1) VH: QVTLKESGPGILQPSQTLSLTCSFSGFSLSTSGMSVGWIRQPSGKGLEWLAHIWWNDDKFYNPALKSRLTISKDTSKNQIFLKIASVVTADSATYYCARIEEGWFAYWGQGTLVTVST VL: SIVMTQTPKFLLVSVGDRVTITCKASQTMSNDVAWYQQKPGQSPKLLIYYASNRYTGVPDRFTGSGYGTDFTFTISTVQAEDLAVYFCQQDYSSPLTFGAGTKLELKR | 0.078 | 0.085 | 3.05 | 0.087 | 4.48 | 0.075 | 0.079 | 2.87 | 0.068 | 0.09 | 1.21 | 0.076 | 3.18 | 0.074 | 4.24 | 0.086 | 0.077 | 1.37 | 0.074 | 3.87 | OD value [21]: 3.27 OD; OD value [22]: 0.081 OD; OD value [23]: 2.42 OD; OD value [24]: 1.3 OD; OD value [25]: 0.073 OD; OD value [26]: 0.084 OD; OD value [27]: 0.081 OD; OD value [28]: 0.078 OD; OD value [29]: 0.082 OD; OD value [30]: 0.078 OD |
| antibody 12F12A10 (antibody, V domains shown, Mouse monoclonal from hybridoma, stated mouse IgG1/Kappa; also called 12F12A10-biotin; Antibody 2) VH: QVQLQQSATELARPGASVKMSCKASGYTFTSYMMHWVKQRPGQGLEWIGYINPSSGYTDYNQKFKDKTTLTADKSSSTAYMQLSSLTSEDSAVYYCARYRYPHYFDYWGQGTTLTVSS VL: QIVLTQSPAIMSASPGEKVTMTCSASSSVSYIHWYQQKSGTSPKRWIYDTSKLASGVPARFSGSGSGTSYSLTISSMEAEDAAIYYCQQWSSNPPTFGAGTKLELKR | 4.59 | 4.29 | 0.088 | 3.76 | 4.08 | 0.09 | 3.84 | 2.81 | 0.089 | 4.33 | 0.083 | 0.093 | 0.096 | 2.99 | 4.22 | 4.48 | 4.59 | 1.05 | 0.088 | 3.9 | OD value [21]: 0.098 OD; OD value [22]: 4.22 OD; OD value [23]: 0.088 OD; OD value [24]: 0.098 OD; OD value [25]: 4.23 OD; OD value [26]: 4.65 OD; OD value [27]: 4.33 OD; OD value [28]: 3.9 OD; OD value [29]: 4.25 OD; OD value [30]: 4.37 OD |
| antibody 11D11B11 (antibody, mouse IgG2a, kappa, V domains shown, Mouse monoclonal from hybridoma, stated mouse IgG1/Kappa; Used unlabelled as capture and biotin-labelled as detection antibody; also called 11D11B11-biotin) VH: DVKLVESGGGLVKPGGSLKLSCAASGFTFSSFSMSWFRQTPDKRLEWVATISSGGSSTYYPDSVKGRFTISRDNAKNTLYLQMTSLKSEDTAIFYCRGGYYGNYDPLDYWGQGTSVTVSA VL: DIVMIQSQKFMSTSVGDRVSITCTASHNVDSNVAWYQQKPGQSPQALIYSASYRYSGVPDRFTGSGSGTDFTLTINNVQSEDLAEYFCQQYNSYPLTFGGGTRLEIKR | 0.077 | 0.083 | 2.69 | 0.071 | 0.064 | 0.074 | 3.74 | 0.066 | 0.075 | 4.24 | 0.079 | 0.074 | 3.15 | 2.46 | 0.064 | 0.089 | 0.069 | 0.066 | 0.21 | 0.072 | OD value [21]: 3.03 OD; OD value [22]: 4.1 OD; OD value [23]: 1.54 OD; OD value [24]: 0.934 OD; OD value [25]: 0.077 OD; OD value [26]: 0.075 OD; OD value [27]: 4.22 OD; OD value [28]: 0.089 OD; OD value [29]: 0.076 OD; OD value [30]: 0.079 OD |
